Reference: publication doi:10.1101/2022.10.13.511879 (bioRxiv, 2022)
Numbering of substitutions follows the chain as printed. In names and notes the source's numbering stands.

Columns and labels:
[1] = molecular target: T1, POPDC2-VN155 (human, UniProt Q9HBU9 1-364); experiment: split reporter
T1 sequence (looked up): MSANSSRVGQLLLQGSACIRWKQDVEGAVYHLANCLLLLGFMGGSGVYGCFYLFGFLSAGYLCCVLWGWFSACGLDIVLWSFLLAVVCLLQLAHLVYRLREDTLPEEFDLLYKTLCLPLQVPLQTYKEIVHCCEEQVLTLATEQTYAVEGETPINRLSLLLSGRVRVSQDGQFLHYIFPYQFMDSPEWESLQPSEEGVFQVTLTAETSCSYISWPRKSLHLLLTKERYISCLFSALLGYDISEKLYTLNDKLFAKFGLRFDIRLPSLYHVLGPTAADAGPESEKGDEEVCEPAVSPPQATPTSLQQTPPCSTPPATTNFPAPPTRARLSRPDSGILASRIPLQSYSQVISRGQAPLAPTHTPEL

[2] = molecular target: T2, POPDC2 p.W188X-VN155 (human, UniProt Q9HBU9 1-187); experiment: split reporter
T2 sequence (looked up): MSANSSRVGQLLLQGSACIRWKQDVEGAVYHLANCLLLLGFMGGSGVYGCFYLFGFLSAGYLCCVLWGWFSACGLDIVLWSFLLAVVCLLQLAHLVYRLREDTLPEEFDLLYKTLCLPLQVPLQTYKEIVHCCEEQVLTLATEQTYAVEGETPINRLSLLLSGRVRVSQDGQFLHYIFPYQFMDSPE

[3] = molecular target: the molecule itself; experiment: SDS-PAGE and Western blot of oligomer bands that withstand SDS
[4] = molecular target: the molecule itself; experiment: FRET or BRET

B1: POPDC1 p.Q153X-VC155 (domain or fragment, human, UniProt Q8NE79 1-152, looked up)
chain: MNYTESSPLRESTAIGFTPELESIIPVPSNKTTCENWREIHHLVFHVANICFAVGLVIPTTLHLHMIFLRGMLTLGCTLYIVWATLYRCALDIMIWNSVFLGVNILHLSYLLYKKRPVKIEKELSGMYRRLFEPLRVPPDLFRRLTGQFCMI
B1 was tested, and the “BiFC signal relative to the wild-type pair” value [1] was 0.248.

B2: POPDC1-VC155 (natural protein, human, UniProt Q8NE79 1-360, looked up)
chain: MNYTESSPLRESTAIGFTPELESIIPVPSNKTTCENWREIHHLVFHVANICFAVGLVIPTTLHLHMIFLRGMLTLGCTLYIVWATLYRCALDIMIWNSVFLGVNILHLSYLLYKKRPVKIEKELSGMYRRLFEPLRVPPDLFRRLTGQFCMIQTLKKGQTYAAEDKTSVDDRLSILLKGKMKVSYRGHFLHNIYPCAFIDSPEFRSTQMHKGEKFQVTIIADDNCRFLCWSRERLTYFLESEPFLYEIFRYLIGKDITNKLYSLNDPTLNDKKAKKLEHQLSLCTQISMLEMRNSIASSSDSDDGLHQFLRGTSSMSSLHVSSPHQRASAKMKPIEEGAEDDDDVFEPASPNTLKVHQLP
For B2, the “BiFC signal relative to the wild-type pair” value [2] was 0.59.

B3: POPDC1 p.S201F-VC155 (natural protein, human, UniProt Q8NE79 1-360, looked up)
chain: B2 chain with S201F
With B3 the “BiFC signal relative to the wild-type pair” value [1] was 0.43.

B4: POPDC1-CFP (natural protein, human, UniProt Q8NE79 1-360, looked up)
chain: B2 chain
With B4 the “stoichiometry N” value [3] was 2.

B5: POPDC1 with C-terminal NanoLuc or HaloTag (NanoBRET constructs) (natural protein, human, UniProt Q8NE79 1-360, looked up)
chain: B2 chain
For B5, the “stoichiometry N” value [4] was 2.
